Experiments:
Assay type in all cases: cell-based, human
NK cells = experiment: Functional assay on NK cells, redirected cytolytic activity
Protocol: Fresh NK cells were sorted with EASY SEP® negative selection kit and incubated over night in medium completed with sub-optimal concentrations of IL-2 (100 U/ml) and IL-15 (10 ng/ml). NK cell receptors functions were tested in re-directed cytolytic experiments against the FcγR positive P815 mastocytoma murine cell line. Briefly, effector cells were incubated with P815 cells pre-coated for 30 minutes with the mAb of interest (irrelevant mouse IgG1: 11 μg/ml, anti-NKp46: 1 μg/ml, anti-DNAM: 5 μg/ml, anti-CD277 20.1: 10 μg/ml) according to a 1:1 Effector:Target (E/T) ratio. Cytotoxic tests were performed in 4-hours assays in the presence of GOLGISTOP® (protein transport inhibitor) and soluble CD107 (a&b)-FITC (both from BD Biosciences), afterward cells were stained for surface markers (CD56-PeCy7 (Beckman Coulter, Immunotech), fixed and permeabilized (CYTOFIX/CYTOPERM®) then stained with intracellular mAb (IFN-γ (Beckman Coulter, Immunotech)). Cells were finally re-suspended in PBS 2% para-formaldehyde and extemporaneously analyzed on a BD FACS CANTO® (BD Biosciences, San Jose, Calif.). The degree of activation of NK cells was measured based on the percentage of cells positive for CD107a and CD107b (degranulation) and/or the production of inflammatory cytokine (IFN-γ).

[1] = system: Daudi, K562 or Raji cells lines; experiment: Anti-tumor cytolysis by Vγ9Vδ2 T cells against tumor cell lines (CD107a/b degranulation)
Protocol: We used for γδ T cells labelling in purity test after expansion, anti-CD3 PE-Cy7 and anti-Vδ2 FITC mAb (BD Pharmingen). For CD277 characterisation in different subsets PBMC were incubated with the following antibodies and molecules: anti-CD3 PE-Cy5 (BD Pharmingen), anti-CD4 PB (BD Pharmingen), anti-CD8 PB (BD Pharmingen), anti-Vδ2 FITC (BD Pharmingen), anti-CD27 APC ALEXA FLUOR® 750 (CALTAG Laboratory), anti-CCR7 PECy7 (BD Pharmingen), anti-CD28 PE (Beckman Coulter), anti-CD45RA ECD (Beckman Coulter), LIVE/DEAD® Fixable Dead Cell Stain Kit (L34957, Invitrogen) and anti-CD277 labelled with ALEXA FLUOR® 647 (Protein labelling Kit ALEXA FLUOR® 647, Molecular Probes, Invitrogen). For analysis of CD107a and CD107b expression, γδ T cells and target cells were co-incubated at 37° C. with anti-CD107a FITC and anti-CD107b FITC in presence of monensin (10 μM, GOLIGISTOP®, BD Bioscience). […] All samples were measured on FACSCANTO® or FACSARIA® flow cytometers (BD Biosciences) using FACSDIVA® software. […]
Target cells were labelled with 20 μCi of 51Cr (PerkinElmer) for 1 h at 37° C. […] The radioactivity released by target cells was measured, 4 h later, on beta plate counter. The percentage of specific 51Cr lysis was calculated using the following equation: percent specific lysis=100×[(test release)−(spontaneous release)]/[(maximal release)−(spontaneous release)].

CD4+ T cells = experiment: Functional assays on CD4+ T cells using plate-immobilized mAbs
Protocol: Purified CD4+ T cells (200×10^3 cells/well) from thawed human PBMCs were cultured in RPMI 1640 10% FBS in flat bottom 96-well plates (MICROTEST™ 96, BD) with previously plate-immobilized mouse anti-human CD3 (clone OKT3)/CD28 (clone CD28.2) or anti-CD3/anti-CD277 (clone 20.1) or anti-CD3/isotypic control (IgG1). Purified anti-CD3 was used at 0, 3 μg/ml. Anti-CD28, anti-CD277 and isotypic control were used at 10 μg/ml. Cells were placed into an atmosphere of 5% CO2 at 37° C. in a humidified incubator. […] […] Data were analyzed using FLOWJO® Software (TreeStar, Ashland, OR).

Vγ9Vδ2 T cells = experiment: Stimulation and expansion assay of Vγ9Vδ2 T cells from PBMC
Protocol: P815 (mouse mastocytoma cell line), K562 (chronic myeloid leukaemia cell line), Raji and Daudi (Burkitt lymphoma cell lines) were cultured in RPMI 1640 medium (Invitrogen) and 10% foetal calf serum (FCS) (Eurobio). The PBMC from healthy donors were distributed at 106/ml in 24-well culture plates at 37° C. in 5% CO2 in RPMI 1640 medium and 10% FCS. Polyclonal Vγ9Vδ2 T cells were specifically expanded with 3 μmol/l of Phosphostim (BrHPP molecule, Innate Pharma, Marseille, France) and 100 U/ml IL-2 (Chiron, Basel, Switzerland) for 12 days. Phosphostim was added once at the onset of the culture. Every 2 days, one-half of the culture medium volume was replaced with fresh medium containing 100 U/ml IL-2.
PBMC were plated and stimulated as described in the paragraph: cell lines and expansion of γδ T cells, except cells were stimulated with anti-CD277 mAbs (10 μg/ml); or control isotypes (10 μg/ml); and with or without BrHPP at different concentrations. […] Percentages of Vγ9Vδ2 were measured the first day and the last day of culture as described above. Expanded γδ T cells effectors were stimulated with or without different doses of BrHPP added in anti-CD277 mAbs at 10 μg/ml; or with OKT3 (4 ng/ml) associated with anti-BT3 19.5 mAb in different concentrations. Activation of degranulation was measured by CD107 labelling assay as described above.

[2] = with anti-NKp46 or anti-CD16, data not shown
[3] = co-stimulation with anti-CD3, vs anti-CD3/IgG1 control, after 24 hours of culture

B1: mAb 20.1: murine anti-CD277 antibody obtainable from the hybridoma CNCM I-4402; agonist (antibody, V domains shown)
VH: QVQLQQSGAELVKPGASVKLSCKASGYTFTRYYLYWVKQRPGQGLEWIGEINPNNGGTKFNEKFKSKATLTVDKSSRTTYIQLSSLTSEDSAVYYCSREDDYDGTPDAMDYWGQGTAVTVSS
VL: DIQMNQSPSSLSASLGDTITITCHASQNINLWLSWYQQRPGNIPKLLIYRASNLHTGVPSRFSGSGSATGFTLTISSLQPEDIATYYCQQGHSYPYTFGGGTKLDIK
- NK cell stimulation by CD277 mAb alone (NK cells; P815 redirected assay): did not have any effect
- NK cell IFN-γ secretion, co-stimulation of NKp46 or CD16 (NK cells; [2]): not affected
- NK cell cytotoxicity, co-stimulation of NKp46 or CD16 (NK cells; [2]): not affected
- function/activation of Vγ9Vδ2 T cells against tumor targets (CD107a/b degranulation assay) [1]: potentiated or revealed
- IFN-γ production by CD4+ T cells (ELISA) (CD4+ T cells; [3]): strongly enhanced
- IL-2 production by CD4+ T cells (ELISA) (CD4+ T cells; [3]): significantly highest than the one with the IgG control
- CD25 activated positive cells (CD4+ T cells; co-stimulation with anti-CD3, after 3 days of culture): 45%
- proliferation of Vγ9Vδ2 cells (CFSE) (Vγ9Vδ2 T cells; PBMC + IL-2): associated with the proliferation
- expansion of Vγ9Vδ2 T cells (Vγ9Vδ2 T cells; PBMC + IL-2, 15 days of culture): expanded
